Target: acetylated BSA (AcBSA) (bovine (from the name BSA), UniProt P02769 25-607, acetylated (lysyl acetylation); extent not stated)
Experiment: SPR

acetylated BSA (AcBSA), sequence (P02769 25-607): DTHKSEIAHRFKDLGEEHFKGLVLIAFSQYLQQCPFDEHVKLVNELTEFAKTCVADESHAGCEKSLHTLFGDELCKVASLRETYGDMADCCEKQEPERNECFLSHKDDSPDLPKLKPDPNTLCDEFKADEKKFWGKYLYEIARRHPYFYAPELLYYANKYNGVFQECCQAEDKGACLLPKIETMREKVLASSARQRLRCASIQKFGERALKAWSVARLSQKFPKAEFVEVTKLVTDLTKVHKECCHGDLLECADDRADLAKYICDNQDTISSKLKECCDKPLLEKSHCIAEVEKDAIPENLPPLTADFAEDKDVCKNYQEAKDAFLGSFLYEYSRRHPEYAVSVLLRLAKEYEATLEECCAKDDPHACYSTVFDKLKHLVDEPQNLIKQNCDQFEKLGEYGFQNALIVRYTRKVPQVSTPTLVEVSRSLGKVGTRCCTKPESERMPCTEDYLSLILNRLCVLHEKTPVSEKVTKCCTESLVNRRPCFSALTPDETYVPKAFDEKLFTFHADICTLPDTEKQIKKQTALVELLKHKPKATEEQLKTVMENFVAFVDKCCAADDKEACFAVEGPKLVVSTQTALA

Kd: 917 nM
B1: SR‐F1(20‐421), SR‐F1 ectodomain (domain or fragment)
chain: SELDPKGQHVCVASSPSAELQCCAGWRQKDQECTIPICEGPDACQKDEVCVKPGLCRCKPGFFGAHCSSRCPGQYWGPDCRESCPCHPHGQCEPATGACQCQADRWGARCEFPCACGPHGRCDPATGVCHCEPGWWSSTCRRPCQCNTAAARCEQATGACVCKPGWWGRRCSFRCNCHGSPCEQDSGRCACRPGWWGPECQQQCECVRGRCSAASGECTCPPGFRGARCELPCPAGSHGVQCAHSCGRCKHNEPCSPDTGSCESCEPGWNGTQCQQPCLPGTFGESCEQQCPHCRHGEACEPDTGHCQRCDPGWLGPRCEDPCPTGTFGEDCGSTCPTCVQGSCDTVTGDCVCSAGYWGPSCNASCPAGFHGNNCSVPCECPEGLCHPVSGSCQPGSGSRDT

— article PMC8487046 (2021)
